Results on one protein are retold here after publication PMC9565474, “Evolution avoids a pathological stabilizing interaction in the immune protein S100A9” (Proceedings of the National Academy of Sciences of the …, 2022).

The data set concerns the molecule itself. Kind of data set: NMR structure; calcium-bound hS100A9/M63F, 0.5 to 1.0 mM dimer, 25 mM Tris, 100 mM NaCl, 10 mM CaCl2 (pH 7.4), 10% D2O, 25 °C or 37 °C; homodimer with chains A and B.

B1: hS100A9/M63F (natural protein, human, UniProt P06702 1-114, looked up)
chain: MTSKMSQLERNIETIINTFHQYSVKLGHPDTLNQGEFKELVRKDLQNFLKKENKNEKVIEHIFEDLDTNADKQLSFEEFIMLMARLTWASHEKMHEGDEGPGHHHKPGLGEGTP
notes: human S100A9, Uniprot P06702, Cys-free (C3S) background with M63F; 114 residues (residues 1 to 114 named in the NMR structure); 15N or 15N/13C labelled for NMR; also called human S100A9 M63F; F/F
With B1, the binding result was “binds”.
